Measured values reported in US20190000964A1 (CREATIVE BIO PEPTIDES, published 2019).

B1: MIP-1β (ligand)
chain: APMGSDPPTACCFSYTARKLPRNFVVDYYETSSLCSQPAVVFQTKRSKQVCADPSESWVQEYVYDLELN
notes: also called MIP-β

What was measured:
[1] = target: T1, human CCR5 receptor (hCCR5) (human, UniProt P51681 1-352); experiment: inhibition of gp120/sCD4 complex binding to CCR5-expressing Cf2Th cells by competing peptide
T1 construct: whole, on cells; also called synCCR5; chemokine co-receptor CCR5

[2] = target: T1, human CCR5 receptor (hCCR5); experiment: inhibition of gp120BaL/sCD4 binding to Cf2Th/synR5 cells (FIG. 4A)
[3] = target: T1, human CCR5 receptor (hCCR5); experiment: inhibition of gp120CM235/sCD4 binding to Cf2Th/synR5 cells (FIG. 4B)
[4] = target: T1, human CCR5 receptor (hCCR5); experiment: inhibition of gp120CM235/sCD4 binding to GHOST CD4.CCR5 cells (FIG. 4C)

T1 sequence (P51681 whole entry): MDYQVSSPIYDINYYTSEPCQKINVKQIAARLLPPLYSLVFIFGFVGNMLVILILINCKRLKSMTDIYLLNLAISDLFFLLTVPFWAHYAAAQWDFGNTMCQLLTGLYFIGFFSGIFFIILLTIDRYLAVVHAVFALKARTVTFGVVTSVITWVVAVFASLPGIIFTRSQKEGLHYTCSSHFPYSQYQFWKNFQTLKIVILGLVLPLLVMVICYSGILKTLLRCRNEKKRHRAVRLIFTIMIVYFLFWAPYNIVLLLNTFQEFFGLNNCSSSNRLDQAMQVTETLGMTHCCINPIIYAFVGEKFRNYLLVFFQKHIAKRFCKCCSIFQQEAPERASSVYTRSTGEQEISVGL

Binder	EC50 [1]	IC50 [2]	IC50 [3]	IC50 [4]
INNYT	0.06 nM			
IDNYT	1 nM			
B1		1.5 nM	1.8 nM	0.43 nM
